Measured values from the supplement of paper PMC11246515.
± gives the standard deviation of the averaged measurements.

Assay: total protein half-life in vivo (active degradation + dilution); higher = more stable protein
[1] = wild type E. coli NCM3722, growth: C-lim chemostat, doubling time 3 h
[2] = wild type E. coli NCM3722, growth: C-lim chemostat, doubling time 6 h
[3] = wild type E. coli NCM3722, growth: C-lim chemostat, doubling time 12 h
[4] = E. coli NCM3722 delta-clpP delta-lon delta-hslV, growth: N-lim chemostat, doubling time 6 h
[5] = E. coli NCM3722 delta-clpP, growth: N-lim chemostat, doubling time 6 h
[6] = E. coli NCM3722 delta-smpB, growth: N-lim chemostat, doubling time 6 h
[7] = wild type E. coli NCM3722, growth: N-lim chemostat, doubling time 6 h
[8] = wild type E. coli NCM3722, growth: N-lim chemostat, doubling time 12 h
[9] = wild type E. coli NCM3722, growth: P-lim chemostat, doubling time 6 h
[10] = wild type E. coli NCM3722, growth: P-lim chemostat, doubling time 12 h
[11] = E. coli NCM3722 delta-hslV, growth: N-lim chemostat, doubling time 6 h
[12] = E. coli NCM3722 delta-lon, growth: N-lim chemostat, doubling time 6 h

MERNKLARQIIDTCLEMTRLGLNQGTAGNVSVRYQDGMLITPTGIPYEKLTESHIVFIDGNGKHEEGKLPSSEWRFHMAAYQSRPDANAVVHNHAVHCTAVSILNRSIPAIHYMIAAAGGNSIPCAPYATFGTRELSEHVALALKNRKATLLQHHGLIACEVNLEKALWLAHEVEVLAQLYLTTLAITDPVPVLSDEEIAVVLEKFKTYGLRIEE [P0AB87]
total protein half-life in vivo [1]: 2.81 ± 0.01 h
total protein half-life in vivo [2]: 4.78 ± 0.5 h
total protein half-life in vivo [3]: 7.71 ± 0.3 h

MPLPDFRLIRLLPLAALVLTACSVTTPKGPGKSPDSPQWRQHQQDVRNLNQYQTRGAFAYISDQQKVYARFFWQQTGQDRYRLLLTNPLGSTELELNAQPGNVQLVDNKGQRYTADDAEEMIGKLTGMPIPLNSLRQWILGLPGDATDYKLDDQYRLSEITYSQNGKNWKVVYGGYDTKTQPAMPANMELTDGGQRIKLKMDNWIVK
total protein half-life in vivo [4]: 5.8 ± 0.1 h
total protein half-life in vivo [5]: 6.43 ± 0.19 h
total protein half-life in vivo [6]: 6.06 ± 0.35 h
total protein half-life in vivo [1]: 3.18 ± 0.06 h
total protein half-life in vivo [2]: 6.24 ± 0.15 h
total protein half-life in vivo [3]: 11.8 ± 0.91 h
total protein half-life in vivo [7]: 6.37 ± 0.46 h
total protein half-life in vivo [8]: 13.22 ± 0.027 h
total protein half-life in vivo [9]: 6.17 ± 0.18 h
total protein half-life in vivo [10]: 13.7 ± 0.68 h

MRIGMRLLLGYFLLVAVAAWFVLAIFVKEVKPGVRRATEGTLIDTATLLAELARPDLLSGDPTHGQLAQAFNQLQHRPFRANIGGINKVRNEYHVYMTDAQGKVLFDSANKAVGQDYSRWNDVWLTLRGQYGARSTLQNPADPESSVMYVAAPIMDGSRLIGVLSVGKPNAAMAPVIKRSERRILWASAILLGIALVIGAGMVWWINRSIARLTRYADSVTDNKPVPLPDLGSSELRKLAQALESMRVKLEGKNYIEQYVYALTHELKSPLAAIRGAAEILREGPPPEVVARFTDNILTQNARMQALVETLLRQARLENRQEVVLTAVDVAALFRRVSEARTVQLAEKKITLHVTPTEVNVAAEPALLEQALGNLLDNAIDFTPESGCITLSAEVDQEHVTLKVLDTGSGIPDYALSRIFERFYSLPRANGQKSSGLGLAFVSEVARLFNGEVTLRNVQEGGVLASLRLHRHFT
total protein half-life in vivo [4]: 6.22 ± 0.68 h
total protein half-life in vivo [5]: 7.24 ± 0.64 h
total protein half-life in vivo [11]: 6.18 ± 0.49 h
total protein half-life in vivo [12]: 5.7 ± 0.74 h
total protein half-life in vivo [6]: 5.49 ± 0.91 h
total protein half-life in vivo [1]: 3.16 ± 0.14 h
total protein half-life in vivo [2]: 6.54 ± 1.2 h
total protein half-life in vivo [3]: 9.95 ± 2.1 h
total protein half-life in vivo [7]: 5.81 ± 0.57 h
total protein half-life in vivo [8]: 12.1 ± 0.34 h
total protein half-life in vivo [9]: 6.86 ± 0.85 h
total protein half-life in vivo [10]: 12.8 ± 1.8 h

MTAPSQVLKIRRPDDWHLHLRDGDMLKTVVPYTSEIYGRAIVMPNLAPPVTTVEAAVAYRQRILDAVPAGHDFTPLMTCYLTDSLDPNELERGFNEGVFTAAKLYPANATTNSSHGVTSIDAIMPVLERMEKIGMPLLVHGEVTHADIDIFDREARFIESVMEPLRQRLTALKVVFEHITTKDAADYVRDGNERLAATITPQHLMFNRNHMLVGGVRPHLYCLPILKRNIHQQALRELVASGFNRVFLGTDSAPHARHRKESSCGCAGCFNAPTALGSYATVFEEMNALQHFEAFCSVNGPQFYGLPVNDTFIELVREEQQVAESIALTDDTLVPFLAGETVRWSVKQ
total protein half-life in vivo [4]: 5.58 ± 0.26 h
total protein half-life in vivo [5]: 5.17 ± 0.099 h
total protein half-life in vivo [11]: 5.194 ± 0.04 h
total protein half-life in vivo [12]: 5.46 ± 0.25 h
total protein half-life in vivo [6]: 4.78 ± 0.2 h
total protein half-life in vivo [1]: 2.85 ± 0.047 h
total protein half-life in vivo [2]: 5.64 ± 0.76 h
total protein half-life in vivo [3]: 8.19 ± 2.8 h
total protein half-life in vivo [7]: 5.06 ± 0.61 h
total protein half-life in vivo [8]: 9.47 ± 0.78 h
total protein half-life in vivo [9]: 6.06 ± 0.17 h
total protein half-life in vivo [10]: 13.6 ± 0.86 h

MLMLFLTVAMVHIVALMSPGPDFFFVSQTAVSRSRKEAMMGVLGITCGVMVWAGIALLGLHLIIEKMAWLHTLIMVGGGLYLCWMGYQMLRGALKKEAVSAPAPQVELAKSGRSFLKGLLTNLANPKAIIYFGSVFSLFVGDNVGTTARWGIFALIIVETLAWFTVVASLFALPQMRRGYQRLAKWIDGFAGALFAGFGIHLIISR [P0AG38]
total protein half-life in vivo [5]: 1.14 h
total protein half-life in vivo [11]: 0.979 h
total protein half-life in vivo [12]: 0.822 h
total protein half-life in vivo [6]: 1.13 ± 0.1 h
total protein half-life in vivo [7]: 1.13 h
total protein half-life in vivo [10]: 2.22 ± 0.65 h

MKILRWLFALVMLIATTEAMAAGHSVDVYYGYNGDSRNIATFNLKIMMPSAVYVGEYKSSQWLMTGEILQNVSWSGPPPAPSVKLIGYHQNINKASCPGLPSGWNCGYYTFEVIVSAEIESYFSCPWLVIMNDSEASPGGVTYQGPDSHDTICPSVSVQPYDVSWNENYVSKSKLLTLQSTGGVVEKTLSTYLMKDGKLCDSTQMNETGGYCRWVAQMITFTASGCDKAEVSVTPNRHPITDKQLHDMVVRVDTSSMQPIDSTCRFQYILNEL
total protein half-life in vivo [4]: 4.06 ± 0.19 h
total protein half-life in vivo [5]: 4.43 h
total protein half-life in vivo [12]: 4.34 h
total protein half-life in vivo [6]: 5.02 ± 1.1 h
total protein half-life in vivo [1]: 3.03 ± 0.58 h
total protein half-life in vivo [3]: 6.01 h
total protein half-life in vivo [7]: 4.81 h
total protein half-life in vivo [8]: > 16 h
total protein half-life in vivo [9]: 4.43 h
total protein half-life in vivo [10]: 8.64 ± 0.17 h
